Experimental data reported in the Immune Epitope Database (IEDB).

How the values were obtained:
[1] = target: HLA-A*02:02; test: IEDB peptide-MHC binding, cellular MHC/competitive/fluorescence; ≥ and ≤ were set here for values at or beyond the usual limits of such assays
[2] = target: HLA-A*02:01; test: as above
[3] = target: HLA-A*68:02; test: as above
[4] = target: HLA-A*02:06; test: as above
[5] = target: HLA-A*02:03; test: IEDB peptide-MHC binding, purified MHC/competitive/radioactivity; ≥ and ≤ were set here for values at or beyond the usual limits of such assays
[6] = target: HLA-A*68:02; test: as above
[7] = target: HLA-A*02:01; test: as above; details: source organism: Vaccinia virus WR
[8] = source organism: Influenza A virus
[9] = source organism: Vaccinia virus WR

| Sequence | IC50 [1, 8] [µM] | IC50 [2, 8] [µM] | IC50 [3, 8] [µM] | IC50 [4, 8] [µM] | IC50 [5, 8] [nM] | IC50 [1, 9] [µM] | IC50 [2, 9] [µM] | IC50 [3, 9] [µM] | IC50 [4, 9] [µM] | IC50 [5, 9] [nM] | IC50 [6, 9] [nM] | IC50 [7] [nM] | IC50 [6, 8] [nM] |
| --- | --- | --- | --- | --- | --- | --- | --- | --- | --- | --- | --- | --- | --- |
| NALLKHRFEII | 11.2 | 22.7 | 12.4 | 5.36 | 4100 |  |  |  |  |  |  |  |  |
| DIRDKYMEL |  |  |  |  |  | 24.3 | 10.3 | 14.7 | 14.6 | 3860 |  |  |  |
| EIKAEMQLKI |  |  |  |  |  | 16.9 | 27.5 | 5.12 | 14.3 | 4760 |  |  |  |
| TAIRAGYSIV |  |  |  |  |  | 6.82 | 26.2 |  | 8.59 | 72 | 1050 |  |  |
| DITNILGGV |  |  |  |  |  | 9.88 | 11.4 |  | 7.43 | 1640 | 12 |  |  |
| PTSETMYLT |  |  |  |  |  | 10.4 | 34.9 |  | ≥ 70 | 3640 | 4040 |  |  |
| NTKSDNIINI |  |  |  |  |  | 30.8 | ≥ 70 |  | ≥ 70 | 1080 | 101 |  |  |
| STKADAVVA |  |  |  |  |  | 8.19 | 29.3 |  | 16.2 | 4950 | 820 |  |  |
| NISFKSINKV |  |  |  |  |  | 20.3 | 14.5 |  | 11.7 | 1530 | 2030 |  |  |
| DITNILGGVL |  |  |  |  |  | 12.3 | 16.2 |  | 19 | 3680 | 515 |  |  |
| RVNHAKYMVT |  |  |  |  |  | 33.6 | 39 |  | 9.34 | 1050 | 544 |  |  |
| ETMYLTMKA |  |  |  |  |  | 7.85 | 19.1 |  | 12.7 | 942 | 0.64 |  |  |
| NTLISSDGA |  |  |  |  |  | 7.41 |  | 25.4 | 49.3 | 3570 |  |  |  |
| LVITYCLVT |  |  |  |  |  | 6.98 |  | 5.75 | 8.01 | 3250 |  | 1330 |  |
| HANNSTDTV | 8.32 | 24 |  | 55 | 4320 |  |  |  |  |  |  |  | 168 |
| SVNASKTINA |  |  |  |  |  | 17.3 | 19.3 |  | 28.7 | 731 | 629 |  |  |
| EVGTNFGTI |  |  |  |  |  | 5.76 | 20.1 |  | 19.9 | 1940 | 69 |  |  |
| KLYIALCKVT |  |  |  |  |  | 7.11 |  | 18.6 | 6.36 | 625 |  |  |  |
| SVDAMIHKT |  |  |  |  |  | 5.02 | 24.1 |  | 10.6 | 3660 | 878 |  |  |
| TVEFDRDKVV |  |  |  |  |  | 16.2 | 30.9 |  | 30.8 | 1600 | 2630 |  |  |
| NMWREILSNT |  |  |  |  |  | 6.07 |  | 63.2 | 12 | 56 |  | 997 |  |
| FISYNRHNDT |  |  |  |  |  | 6.84 | 36.3 |  | 11.2 | 4930 | 2280 |  |  |
| EIRGVLPEET |  |  |  |  |  | 9.6 | 30.5 |  | 20.1 | 4870 | 4540 |  |  |
| RTEIIRMMESA | 8.29 | ≥ 70 |  | ≥ 70 | 4470 |  |  |  |  |  |  |  | 4320 |
| YVSSSYKDI |  |  |  |  |  | 5.04 | 31.2 |  | 16.6 | 1200 | 2630 |  |  |
| EVLMSPCRM |  |  |  |  |  | 6.83 | 27.9 |  | 11.8 | 651 | 1520 |  |  |
| DAMIHKTYI |  |  |  |  |  | 5.42 | 8.17 |  | 9.56 | 1520 | 87 |  |  |
| GADINLMPI | 7.41 | 11.9 |  | 5.77 | 3300 |  |  |  |  |  |  |  | 4400 |
| EVMPEKRNVV |  |  |  |  |  | 20.2 | 44.3 |  | 12.1 | 2620 | 107 |  |  |
| VIRHVDGKI |  |  |  |  |  | 8.55 | 43.3 |  | 9.27 | 978 | 1440 |  |  |
